In patent publication US11541126B1, “Anti-ASGR1 antibody TLR8 agonist comprising conjugates and uses thereof” (Silverback Therapeutics, Inc., priority 2020, dated 2023):

B1: hzG2D-16: humanized G2D clone; "G2D VL region ... of clones 1-16, 19-21, 26-29, 31, and 33 ... grafted into the human germline sequence VKI-L1 with JK4" (antibody, V domains shown)
VH: QVQLVQSGAEVKKPGASVKVSCKASGYSFTGYYMHWVRQAPGQRLEWMGRINPNNGATNYNQNFKDKASLTVDTSASTAYMELSSLRSEDTAVYYCTSVNFYYWGQGTTLTVSS
VL: DIQMTQSPSSLSASVGDRVTITCKASQVINSYLSWFQQKPGKAPKSLIYRANTLVDGVPSRFSGSGSGTDFTLTISSLQPEDFATYYCLQYAEFPYTFGGGTKVEIK
modifications: Synthetic sequence hzG2.5D VH T28S, R66K, V67A, T68S, I69L, R71V, A93T, R94S, V109L; Synthetic sequence hzG2D VLa
B2: hzG2D-21: humanized G2D clone; "G2D VL region ... of clones 1-16, 19-21, 26-29, 31, and 33 ... grafted into the human germline sequence VKI-L1 with JK4" (antibody, V domains shown)
VH: QVQLVQSGAEVKKPGASVKVSCKASGYTFTGYYMHWVRQAPGQRLEWMGRINPNNGATNYNQNFKDKASLTVDTSASTAYMELSSLRSEDTAVYYCTSVNFYYWGQGTTVTVSS
VL: DIQMTQSPSSLSASVGDRVTITCKASQVINSYLSWFQQKPGKAPKSLIYRANTLVDGVPSRFSGSGSGTDFTLTISSLQPEDFATYYCLQYAEFPYTFGGGTKVEIK
modifications: Synthetic sequence hzG2.47D VH R66K, V67A, T68S, I69L, R71V, A93T, R94S; Synthetic sequence hzG2D VLa
B3: hzG2D-22: humanized G2D clone; "G2D VL region ... of clones 22, 23, 30, 32, and 34-37 ... grafted into the human germline sequence VKI-O2 with JK4" (antibody, V domains shown)
VH: QVQLVQSGAEVKKPGASVKVSCKASGYTFTGYYMHWVRQAPGQRLEWMGRINPNNGATNYNQNFKDKASLTVDTSASTAYMELSSLRSEDTAVYYCARVNFYYWGQGTTVTVSS
VL: DIQMTQSPSSLSASVGDRVTITCKASQVINSYLSWYQQKPGKAPKLLIYRANTLVDGVPSRFSGSGSGTDFTLTISSLQPEDFATYYCLQYAEFPYTFGGGTKVEIK
modifications: Synthetic sequence hzG2.46D VH R66K, V67A, T68S, I69L, R71V; Synthetic sequence hzG2D VLb
B4: hzG2D-23: humanized G2D clone; "G2D VL region ... of clones 22, 23, 30, 32, and 34-37 ... grafted into the human germline sequence VKI-O2 with JK4" (antibody, V domains shown)
VH: QVQLVQSGAEVKKPGASVKVSCKASGYTFTGYYMHWVRQAPGQRLEWMGRINPNNGATNYNQNFKDKASLTVDTSASTAYMELSSLRSEDTAVYYCTSVNFYYWGQGTTVTVSS
VL: DIQMTQSPSSLSASVGDRVTITCKASQVINSYLSWYQQKPGKAPKLLIYRANTLVDGVPSRFSGSGSGTDFTLTISSLQPEDFATYYCLQYAEFPYTFGGGTKVEIK
modifications: Synthetic sequence hzG2.47D VH R66K, V67A, T68S, I69L, R71V, A93T, R94S; Synthetic sequence hzG2D VLb
B5: hzG2D-24: humanized G2D clone; "G2D VL region ... of clones 24 and 25 ... grafted into the human germline sequence VKI-A20 with JK4 to generate hzG2D VLc (SEQ ID NO:249)" (antibody, V domains shown)
VH: QVQLVQSGAEVKKPGASVKVSCKASGYTFTGYYMHWVRQAPGQRLEWMGRINPNNGATNYNQNFKDKASLTVDTSASTAYMELSSLRSEDTAVYYCARVNFYYWGQGTTVTVSS
VL: DIQMTQSPSSLSASVGDRVTITCKASQVINSYLSWYQQKPGKVPKLLIYRANTLVDGVPSRFSGSGSGTDFTLTISSLQPEDVATYYCLQYAEFPYTFGGGTKVEIK
modifications: Synthetic sequence hzG2.46D VH R66K, V67A, T68S, I69L, R71V; Synthetic sequence hzG2D VLc
B6: hzG2D-25: humanized G2D clone; "G2D VL region ... of clones 24 and 25 ... grafted into the human germline sequence VKI-A20 with JK4 to generate hzG2D VLc (SEQ ID NO:249)" (antibody, V domains shown)
VH: QVQLVQSGAEVKKPGASVKVSCKASGYTFTGYYMHWVRQAPGQRLEWMGRINPNNGATNYNQNFKDKASLTVDTSASTAYMELSSLRSEDTAVYYCTSVNFYYWGQGTTVTVSS
VL: DIQMTQSPSSLSASVGDRVTITCKASQVINSYLSWYQQKPGKVPKLLIYRANTLVDGVPSRFSGSGSGTDFTLTISSLQPEDVATYYCLQYAEFPYTFGGGTKVEIK
modifications: Synthetic sequence hzG2.47D VH R66K, V67A, T68S, I69L, R71V, A93T, R94S; Synthetic sequence hzG2D VLc
B7: hzG2D-26: humanized G2D clone; "G2D VL region ... of clones 1-16, 19-21, 26-29, 31, and 33 ... grafted into the human germline sequence VKI-L1 with JK4" (antibody, V domains shown)
VH: QVQLVQSGAEVKKPGASVKVSCKASGYTFTGYYMHWVRQAPGQRLEWMGRINPNNGATNYNQNFKDKASLTVDTSASTAYMELSSLRSEDTAVYYCTSVNFYYWGQGTTVTVSS
VL: DIQMTQSPSSLSASVGDRVTITCKASQVINSYLSWFQQKPGKAPETLIYRANTLVDGVPSRFSGSGSGTDFTLTISSLQPEDFATYYCLQYAEFPYTFGGGTKVEIK
modifications: Synthetic sequence hzG2.47D VH R66K, V67A, T68S, I69L, R71V, A93T, R94S; Synthetic sequence hzG2.3D VLa K45E, S46T
B8: G2D-C (antibody, V domains shown)
VH: EVQLQQSGPELVKPGASVKISCKASGYSFTGYYMHWVKQSHVKSLEWIGRINPNNGATNYNQNFKDKASLTVDKSSSTAYMEFHSLTSEDSAVYYCTSVNFYYWGQGTTLTVSS
VL: DIKMTQSPSSMYASLGERVTITCKASQVINSYLSWFQQKPGKSPETLIYRANTLVDGVPSRFSGSGSGQDYSLTISSLEYEDLGIYYCLQYAEFPYTFGGGTKLEIK
modifications: IgG1 kappa constant regions; Synthetic sequence G2D VH; Synthetic sequence G2D VL
B9: hzG2D-27: humanized G2D clone; "G2D VL region ... of clones 1-16, 19-21, 26-29, 31, and 33 ... grafted into the human germline sequence VKI-L1 with JK4" (antibody, V domains shown)
VH: QVQLVQSGAEVKKPGASVKVSCKASGYTFTGYYMHWVRQAPGQRLEWMGRINPNNGATNYNQNFKDKASLTVDTSASTAYMELSSLRSEDTAVYYCTSVNFYYWGQGTTVTVSS
VL: DIQMTQSPSSLSASVGDRVTITCKASQVINSYLSWFQQKPGKAPKSLIYRANTLVDGVPSRFSGSGSGTDFTLTISSLEYEDFATYYCLQYAEFPYTFGGGTKVEIK
modifications: Synthetic sequence hzG2.47D VH R66K, V67A, T68S, I69L, R71V, A93T, R94S; Synthetic sequence hzG2.4D VLa Q79E, P80Y

These molecules were tested against T1, HepG2 cells (which express ASGR1) (Homo sapiens, UniProt P07306) (assay: Guava HepG2 cell binding screen of humanized anti-ASGR1 clones). Settings: humanized G2D clones (Table 5); two numbers per cell, not explained.
T1 construct: endogenous in cells; host or cells: HepG2
T1 sequence (P07306 1-291): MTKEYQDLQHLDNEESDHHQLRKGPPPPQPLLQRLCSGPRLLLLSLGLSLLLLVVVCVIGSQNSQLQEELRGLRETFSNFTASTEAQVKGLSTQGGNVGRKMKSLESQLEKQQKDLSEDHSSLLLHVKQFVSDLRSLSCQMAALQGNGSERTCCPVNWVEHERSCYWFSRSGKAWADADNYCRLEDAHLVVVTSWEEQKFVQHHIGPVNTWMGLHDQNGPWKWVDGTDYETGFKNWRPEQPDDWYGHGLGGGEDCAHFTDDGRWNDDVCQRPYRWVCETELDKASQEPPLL
Parameters: unit not given here
Experimental: Hybridomas producing monoclonal antibodies (mAbs) specific for human ASGR1 were prepared from Balb/C mice immunized with ASGR1-AviHis at a service provider using their propriety protocol. Antibody heavy and light chain sequences were obtained, amplified, and cloned. Clone supernatants containing the expressed mAbs were screened for binding to a human ASGR1-IgG1Fc fusion protein, and those with a positive signal as measured by enzyme linked immunosorbent assay (ELISA) were screened for cell binding on HepG2 cells (which express ASGR1).

Molecule | Guava HepG2 Screen
B1 | 165/108
B2 | 199/127
B3 | None
B4 | 198/131
B5 | None
B6 | None
B7 | 185/114
B8 | 187/145
B9 | 191/116
